For one assay, the target named is urelumab. In words: flow cytometry on cells. Conditions: Ab 10 µg/ml (highest point of the titration); antigen transfected into Expi293 cells; parent: est. 17000; read off a plot.
For the next assay, the target named is utomilumab. In words: flow cytometry on cells. Conditions: Ab 10 µg/ml (highest point of the titration); antigen transfected into Expi293 cells; parent: est. 14000; read off a plot. On the technique in general: A flow cytometer gives signals particle by particle.
For a further assay, the target named is HuB6. Put plainly: flow cytometry on cells. Conditions: Ab 10 µg/ml (highest point of the titration); antigen transfected into Expi293 cells; parent: est. 17000; read off a plot.
The target in another assay is HuB6 (human). Put plainly: SPR; HuB6 and human FcγRs; who was immobilised not given; n = 3.
Sequence of HuB6 (human) (heavy, as listed by the source, chain 1 of 2): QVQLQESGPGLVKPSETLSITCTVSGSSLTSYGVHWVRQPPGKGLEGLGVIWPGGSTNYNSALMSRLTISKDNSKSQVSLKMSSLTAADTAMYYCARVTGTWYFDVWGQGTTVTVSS
Sequence of HuB6 (human) (light, as listed by the source, chain 2 of 2): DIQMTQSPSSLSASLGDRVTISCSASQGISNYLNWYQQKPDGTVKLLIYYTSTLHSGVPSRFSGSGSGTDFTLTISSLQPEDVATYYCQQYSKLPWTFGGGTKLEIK
For a further assay, the target named is T1, Hu4-1BB-His (Homo sapiens, UniProt Q07011).
T1 construct: human 4-1BB (CD137, TNFRSF9), His-tagged, bought; No catalogue number is printed; also called human 4-1BB; source: bought: Acro biosystems
Put plainly: BLI; Octet Red96, 25 °C; antibody loaded on AHC biosensors; Hu4-1BB-His 200-12.5 nM in 1 × PBS; 500 s association, 30 min dissociation. The note with it: both partners purified. On the technique in general: BLI is a label-free optical method that tracks binding on a fibre tip over time.

For another assay, the target named is T2, human 4-1BB ECD (Homo sapiens, UniProt Q07011).
T2 construct: human 4-1BB (CD137, TNFRSF9), extracellular domain, coupled to the CM5 chip for SPR; also called CD137; TNFRSF9
T2 sequence (Q07011 24-186): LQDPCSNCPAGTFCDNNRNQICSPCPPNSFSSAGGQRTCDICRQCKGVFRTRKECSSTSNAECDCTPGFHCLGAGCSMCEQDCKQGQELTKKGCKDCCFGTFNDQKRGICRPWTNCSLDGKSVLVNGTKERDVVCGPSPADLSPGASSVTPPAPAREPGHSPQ
Put plainly: SPR; Biacore T200, 25 °C; human 4-1BB ECD amine-coupled on a CM5 chip to 300 RU; antibody from 80 μg/mL in two-fold dilutions injected at 30 μL/min; 1:1 Langmuir model. The note with it: both partners purified.

The target in the next assay is T3, mouse 4-1BB-ECD-mFc (Mus musculus, UniProt P20334).
T3 construct: mouse 4-1BB, UniProt P20334, extracellular domain; also called Mu4-1BB; murine 4-1BB; source: Expi293F, transfected, purified (MabSelect PrismA); not shown: Fc (mouse), C-terminal, kept
T3 sequence (P20334 24-187): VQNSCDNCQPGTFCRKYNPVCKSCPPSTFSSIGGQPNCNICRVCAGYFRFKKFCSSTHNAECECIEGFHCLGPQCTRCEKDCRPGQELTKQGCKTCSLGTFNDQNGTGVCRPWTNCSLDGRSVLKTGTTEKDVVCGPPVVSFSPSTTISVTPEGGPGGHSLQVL
In words: ELISA; indirect ELISA; plates coated with 4-1BB-mFc (1 μg/mL mouse, 350 ng/mL cynomolgus) in carbonate buffer; serially diluted antibodies, room temperature 2 h; HRP goat anti-human Fc. Conditions: both partners purified. (In general: In an ELISA, binding on a coated surface is turned into a signal by an enzyme label.)

The target of the next assay is T4, cynomolgus 4-1BB-mFc (Macaca fascicularis, UniProt A9YYE7).
T4 construct: cynomolgus monkey 4-1BB, UniProt A9YYE7, extracellular domain; also called Cy4-1BB; cynomolgus monkey 4-1BB; source: Expi293F, transfected, purified (MabSelect PrismA); not shown: Fc (mouse), C-terminal, kept
The assay is described as above. Conditions: both partners purified.

Data on 6 molecules can be found in PMC9461191 (Journal of Translational Medicine, 2022).

“wild-type (WT) human 4-1BB antigen on Expi293F cells (from UniProt Q07011) I132”: the response in the assay with urelumab was 17000 Mean FITC; with utomilumab it was 3900 Mean FITC; with HuB6, 20000 Mean FITC.
In the same order, the values of “wild-type (WT) human 4-1BB antigen on Expi293F cells (from UniProt Q07011) N42” are 900 Mean FITC, 13000 Mean FITC and 15000 Mean FITC.
For “human FcγRIA (from UniProt P12314 16-374) (receptor)”, in the assay with HuB6 (human), the Kd (in general, the concentration at which binding is half-saturated) stood at 8.86 nM; the koff (commonly the first-order rate constant of dissociation) was 0.0045 s⁻¹; the kon (commonly a measure of how fast the partners come together) is 531000 M⁻¹ s⁻¹.
In the case of “wild-type (WT) human 4-1BB antigen on Expi293F cells (from UniProt Q07011) M101”, the response is 17000 Mean FITC in the assay with urelumab, 2600 Mean FITC with utomilumab and 19000 Mean FITC with HuB6.

B1: urelumab (antibody, V domains shown)
VH: QVQLQQWGAGLLKPSETLSLTCAVYGGSFSGYYWSWIRQSPEKGLEWIGEINHGGYVTYNPSLESRVTISVDTSKNQFSLKLSSVTAADTAVYYCARDYGPGNYDWYFDLWGRGTLVTVSS
VL: EIVLTQSPATLSLSPGERATLSCRASQSVSSYLAWYQQKPGQAPRLLIYDASNRATGIPARFSGSGSGTDFTLTISSLEPEDFAVYYCQQRSNWPPALTFGGGTKVEIK
notes: IgG4; IgG4 mAb; also called BMS-663513; urelumab-IgG4; source: Expi293F, transfected, purified (MabSelect PrismA)
With B1, the Kd in the assay with Hu4-1BB-His turned out to be 5.76 ± 0.85 nM; in the assay with human 4-1BB ECD, 5.34 ± 0.49 nM. For the same molecule, the binding result with mouse 4-1BB-ECD-mFc was “no binding”.

B2: utomilumab (antibody, V domains shown)
VH: EVQLVQSGAEVKKPGESLRISCKGSGYSFSTYWISWVRQMPGKGLEWMGKIYPGDSYTNYSPSFQGQVTISADKSISTAYLQWSSLKASDTAMYYCARGYGIFDYWGQGTLVTVSS
VL: SYELTQPPSVSVSPGQTASITCSGDNIGDQYAHWYQQKPGQSPVLVIYQDKNRPSGIPERFSGSNSGNTATLTISGTQAMDEADYYCATYTGFGSLAVFGGGTKLTVL
notes: IgG2; IgG2 mAb; also called PF-05082566; utomilumab-IgG2; source: Expi293F, transfected, purified (MabSelect PrismA)
With B2, the binding result with mouse 4-1BB-ECD-mFc is “no binding”. Besides, a half-maximal effect in the assay with cynomolgus 4-1BB-mFc (EC50) was put at 0.038 nM.
